From patent US20220298217A1 (FLAGSHIP PIONEERING INNOVATIONS VI, published 2022)

T1: Flag-PTHR1-YFP (UniProt Q03431 27-593)
T1 sequence (looked up): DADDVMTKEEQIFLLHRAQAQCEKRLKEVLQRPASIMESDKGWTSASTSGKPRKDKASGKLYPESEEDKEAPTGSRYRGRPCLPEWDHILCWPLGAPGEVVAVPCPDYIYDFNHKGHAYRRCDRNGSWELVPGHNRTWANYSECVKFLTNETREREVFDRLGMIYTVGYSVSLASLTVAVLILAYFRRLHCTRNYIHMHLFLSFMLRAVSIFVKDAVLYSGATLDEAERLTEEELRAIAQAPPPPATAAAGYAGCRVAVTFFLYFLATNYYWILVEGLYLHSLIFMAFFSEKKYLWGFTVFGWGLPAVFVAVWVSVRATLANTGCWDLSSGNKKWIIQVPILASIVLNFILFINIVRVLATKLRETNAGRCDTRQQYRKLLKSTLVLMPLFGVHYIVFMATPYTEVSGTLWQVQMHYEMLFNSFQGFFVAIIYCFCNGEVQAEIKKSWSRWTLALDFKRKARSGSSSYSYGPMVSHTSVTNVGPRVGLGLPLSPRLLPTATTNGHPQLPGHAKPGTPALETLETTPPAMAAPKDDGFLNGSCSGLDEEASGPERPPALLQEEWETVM

T2: PTHR1 on CHO-K1/Ga15/PTHR1 cells (UniProt Q03431 27-593, limits assumed)
T2 sequence (looked up): T1 sequence (looked up)


target: T1, Flag-PTHR1-YFP; assay: cell-based or functional assay

Binder | arrestin 2 recruitment (BRET): -log10EC50 | arrestin 2 recruitment (BRET): Emax
AVAEIQLMHQRAKWRLEIELLKKLKEILKDVY [R2-34] | -8.41 -log10EC50 (as headed) | 7.61
AVAEIQLMHQRAKWGVELQLKVDLRRILEDVY [R2-35] | -3.46 -log10EC50 (as headed) | 35.8
AVAEIQLMHQRAKWELQEIGIKITLDLLEAYL [R2-39] | -7.7 -log10EC50 (as headed) | 6.88
AVAEIQLMHQRAKWSILEELLKILTALLDEYI [R2-46] | -6.73 -log10EC50 (as headed) | 8.34

target: T2, PTHR1 on CHO-K1/Ga15/PTHR1 cells; assay: cell-based or functional assay

Binder | cAMP accumulation (HTRF): -log10EC50 | cAMP accumulation (HTRF): Emax
AVAEIQLMHQRAKWRLEIELLKKLKEILKDVY [R2-34] | -6.98 -log10EC50 (as headed) | 96.1%
AVAEIQLMHQRAKWGVELQLKVDLRRILEDVY [R2-35] | -8.01 -log10EC50 (as headed) | 97%
GVYAIQAMHDLAKIRAEYELREMLLRLLEEIF [R2-10] | -4.49 -log10EC50 (as headed) | 1680%
GVAMLQILHDKAKVRAEYELREMLLRLLEEIF [R2-11] | -5.7 -log10EC50 (as headed) | 60.8%
GVAEIQLMVDLDIIRAEYELREMLLRLLEEIF [R2-12] | -3.86 -log10EC50 (as headed) | 154%
GIAVITLMDLRAYLRAEYELREMLLRLLEEIF [R2-13] | -5.31 -log10EC50 (as headed) | 116%
GIAVLTILDLRAKLRAEYELREMLLRLLEEIF [R2-14] | -11.3 -log10EC50 (as headed) | 117%
GVAMIQIMHDIAKIRAEYELREMLLRLLEEIF [R2-2] | -6.73 -log10EC50 (as headed) | 101%
GVAEIQLMHDIPVIRAEYELREMLLRLLEEIF [R2-3] | -4.93 -log10EC50 (as headed) | 260%
GVSMLQIMHDLAVIRAEYELREMLLRLLEEIF [R2-4] | -5.87 -log10EC50 (as headed) | 10.6%
GVALLQIVHDFAKIRAEYELREMLLRLLEEIF [R2-5] | – | 1580%
AVATIQLMTDIAKIRAEYELREMLLRLLEEIF [R2-6] | 3.88 -log10EC50 (as headed) | 294%
GVAELQLMHFRALLRAEYELREMLLRLLEEIF [R2-7] | -1.58 -log10EC50 (as headed) | 823%
SVMMIQVMHDLAKIRAEYELREMLLRLLEEIF [R2-8] | -7.5 -log10EC50 (as headed) | 19.9%
GVVMLQFMHDVAKIRAEYELREMLLRLLEEIF [R2-9] | 110 -log10EC50 (as headed) | 665%
LILVEQLMDLRAYLRAEYELREMLLRLLEEIF [R2-16] | -4.71 -log10EC50 (as headed) | 48.7%
GIAVFTIMHLRIYLRAEYELREMLLRLLEEIF [R2-17] | -3.35 -log10EC50 (as headed) | 39.7%
SIIGEQLMLLRALLRAEYELREMLLRLLEEIF [R2-18] | -2.23 -log10EC50 (as headed) | 36.6%
PIPVKDIMDLRAYLRAEYELREMLLRLLEEIF [R2-19] | -4.69 -log10EC50 (as headed) | 324%
LILVKKIIDLRAYLRAEYELREMLLRLLEEIF [R2-21] | -4.67 -log10EC50 (as headed) | 47%
GIAVITIMIDYAKLRAEYELREMLLRLLEEIF [R2-22] | -10.1 -log10EC50 (as headed) | 17.6%

Binder | cAMP accumulation (HTRF): -log10EC50 | cAMP accumulation (HTRF): Emax
GLAALTIGLLRAKLRAEYELREMLLRLLEEIF [R2-24] | -10.4 -log10EC50 (as headed) | 81.4%
AVAEIQLMHQRAKWKLELELKVKLLEILKDVY [R2-25] | -7.89 -log10EC50 (as headed) | 96%
AVAEIQLMHQRAKWGLELELKEKLRKILEDVY [R2-26] | -7.07 -log10EC50 (as headed) | 96.8%
AVAEIQLMHQRAKWKLDLELAVSLRKILEDVY [R2-27] | -7.91 -log10EC50 (as headed) | 93.3%
AVAEIQLMHQRAKWGLDLELAVKLQEILKDVL [R2-28] | -7.03 -log10EC50 (as headed) | 99.2%
AVAEIQLMHQRAKWKLELELKEKIRKLLEDLL [R2-29] | -7.22 -log10EC50 (as headed) | 97.5%
AVAEIQLMHQRAKWLEELKLKDDLRKILEDVY [R2-30] | -7.1 -log10EC50 (as headed) | 97.2%
AVAEIQLMHQRAKWGLDLELRARLREILRDVY [R2-31] | -14 -log10EC50 (as headed) | 104%
AVAEIQLMHQRAKWKQELELEEKNKKILEDVY [R2-32] | -6.51 -log10EC50 (as headed) | 101%
AVAEIQLMHQRAKWLNELRLKEEMRKILEDVY [R2-33] | -7.1 -log10EC50 (as headed) | 96.9%
AVAEIQLMHQRAKWELLEELLKILLELLKEYI [R2-38] | -6.91 -log10EC50 (as headed) | 99.1%
AVAEIQLMHQRAKWEIQEIGIKITLDLLQTLK [R2-41] | -10.3 -log10EC50 (as headed) | 98.2%
AVAEIQLMHQRAKWIQDARRRAFLHKLIAEIH [LA-PM-FL (R1-81)] | -7.88 -log10EC50 (as headed) | 95%
GVAELQLMHDLAKIKLELELKVKLLEILKDVY [R2-49] | -5.79 -log10EC50 (as headed) | 99.9%
GIAVITLMVLRALLELQEIGRKITLELLKEYI [R2-51] | -9.98 -log10EC50 (as headed) | 3.99%
GIAVITLMLLRAYLELLEELVKILHELLRRYH [R2-52] | -5.59 -log10EC50 (as headed) | 97.4%
AVAEIQLMHQRAKWELEYELFEMFLKLLEEIF [I1 (R1-100)] | -7.28 -log10EC50 (as headed) | 99.9%
VDFEIQLMQQRAQWIADYRIREFLDKLIAEIF [R1-94] | -10.1 -log10EC50 (as headed) | 90.8%
AVAEIQLMHQRAKWRAEYELREMLLRLLEEIF [R1-96] | -8.01 -log10EC50 (as headed) | 99.7%
AVAEIQLMHQRAKWELEFELFREFLKLLVDFF [I3 (R1-97)] | -7.23 -log10EC50 (as headed) | 99.3%
